A value given as a limit tells only on which side of the number the result lay.

Experiment [1] concerns the target human FcγRIIB (CD32B) on cells (human) (UniProt P31994). Description: double-staining FACS on CHO cells with full-length FcγRIIB, isotype control pre-incubation.
The target of experiment [2] is T1, CD32A (H131 form) on THP-1 monocytic cells (human, UniProt P12318 34-317).
T1 construct: whole, on cells
T1 sequence (looked up): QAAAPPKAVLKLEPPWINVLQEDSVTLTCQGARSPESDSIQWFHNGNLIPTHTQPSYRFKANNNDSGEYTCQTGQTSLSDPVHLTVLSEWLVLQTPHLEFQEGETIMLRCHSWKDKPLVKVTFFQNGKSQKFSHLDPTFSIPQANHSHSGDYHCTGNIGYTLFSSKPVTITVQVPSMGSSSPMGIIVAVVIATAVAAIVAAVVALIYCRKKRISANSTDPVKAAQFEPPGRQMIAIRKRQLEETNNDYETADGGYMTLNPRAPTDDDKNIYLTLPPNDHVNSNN
As to the kind of experiment: FACS on THP-1 cells. Here is the method: Recognition of CD32B on the cell surface. Experiments were carried out to test the ability of the antibodies to discriminate CD32B from CD32A expressed on cells and to recognize the native CD32B molecule on human cell lines.

For experiment [3], the target named is T2, soluble extracellular domain of human FcγRIIB (CD32B), produced in mammalian (293/293H) cells (human, UniProt P31994 43-217).
T2 construct: extracellular domain; also called mammalian FcγRIIB; soluble monomeric human CD32B
T2 sequence (looked up): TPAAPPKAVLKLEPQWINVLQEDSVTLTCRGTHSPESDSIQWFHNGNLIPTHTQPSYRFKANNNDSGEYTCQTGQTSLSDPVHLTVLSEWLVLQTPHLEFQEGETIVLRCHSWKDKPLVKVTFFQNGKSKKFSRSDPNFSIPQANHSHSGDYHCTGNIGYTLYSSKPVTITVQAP
Description: direct ELISA, receptor-coated plate.

Experiment [4] deals with T3, soluble extracellular domain of human CD32A-R131 (human, UniProt P12318 34-217).
T3 construct: extracellular domain; Monomeric analyte in BIAcore, 100 nM
T3 sequence (looked up): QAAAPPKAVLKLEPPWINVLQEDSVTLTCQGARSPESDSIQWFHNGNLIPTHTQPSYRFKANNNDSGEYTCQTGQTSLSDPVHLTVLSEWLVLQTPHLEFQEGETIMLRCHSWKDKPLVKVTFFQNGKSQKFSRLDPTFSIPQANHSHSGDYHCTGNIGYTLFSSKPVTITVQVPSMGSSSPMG
As to the kind of experiment: SPR (BIAcore), antibody captured, soluble monomeric receptor injected.
Description: The capturing antibody, a F(ab′)2 fragment of a goat anti-mouse Fc-specific antibody (Jackson Immunoresearch, West Grove, Pa.), was immobilized on the CM-5 sensor chip according to the procedure recommended by the manufacturer. Briefly, the carboxyl groups on the sensor chip surface were activated with an injection of a solution containing 0.2M N-ethyl-N-(3diethylamino-propyl) carbodiimide and 0.05M N-hydroxy-succinimide. The F(ab′)2 fragment was then injected over the activated CM-5 surface in 10 mM sodium-acetate, pH 5.0, at flow rate 5 μl/min for 420 sec, followed by 1 M ethanolamine for deactivation. Binding experiments were performed in HBS-P buffer containing 110 mM HEPES, pH 7.4, 150 mM NaCl, and 0.005% P20 surfactant. Each monoclonal antibody was captured on the CM-5 chip by injecting a 300 nM-antibody solution at flow rate 5 μl/min for 240 sec, followed by an injection of the monomeric soluble receptors at concentration of 100 nM and a flow rate 50 μl/min for 120 sec with dissociation time 180 sec. Regeneration of the F(ab′)2 GAM surface was performed by pulse injection of 50 mM glycine, pH 1.5 and 50 mM NaOH. […] Resulted curves were analyzed by separate ka/kd fit. KD values were calculated as average of four curves at two different concentrations. […]

Experiment [5] deals with T4, FcγRIIIA coated on ELISA plates (UniProt P08637 17-208, limits assumed).
T4 construct: 100 ng/well on the plate
T4 sequence (P08637 17-208 limits assumed): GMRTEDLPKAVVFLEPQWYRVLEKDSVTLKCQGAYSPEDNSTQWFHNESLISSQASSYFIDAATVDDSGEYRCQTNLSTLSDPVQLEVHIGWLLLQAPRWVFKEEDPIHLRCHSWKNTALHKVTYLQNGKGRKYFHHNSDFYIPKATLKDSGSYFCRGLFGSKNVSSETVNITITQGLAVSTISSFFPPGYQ
As to the kind of experiment: direct ELISA, receptor-coated plate.

Molecule aggregated human IgG (ligand) returned a percent of cells stained in experiment [1] of 60%.

B1: mouse monoclonal antibody produced by clone 2B6 (antibody, V domains shown)
VH: QVQLQQPVTELVRPGASVMLSCKASDYPFTNYWIHWVKQRPGQGLEWIGVIDPSDTYPNYNKKFKGKATLTVVVSSSTAYMQLSSLTSDDSAVYYCARNGDSDYYSGMDYWGQGTSVTVSS
VL: DILLTQSPAILSVSPGERVSFSCRTSQSIGTNIHWYQQRTNGFPRLLIKNVSESISGIPSRFSGSGSGTDFILSINSVESEDIADYYCQQSNTWPFTFGGGTKLEIK
notes: also called 2B6 antibody; m2B6
For B1, the figures for the binding result in experiment [2] and in experiment [4] were “no binding” and “no binding (tested: 100 nM soluble receptor)”, respectively. In addition, the “fold binding relative to AT10, FL18.26 and IV.3” value in experiment [3] is at most 4.5 fold.

B2: mouse monoclonal antibody produced by clone 3H7 (antibody, V domains shown)
VH: EVKFEESGGGLVQPGGSMKLSCAASGFTFSDAWMDWVRQGPEKGLEWVAEIRNKANNLATYYAESVKGRFTIPRDDSKSSVYLHMNSLRAEDTGIYYCYSPFAYWGQGTLVTVSA
VL: DIQMTQSPSSLSASLGERVSLTCRASQEISGYLSWLQQKPDGTIRRLIYAASTLDSGVPKRFSGSWSGSDYSLTISSLESEDFADYYCLQYVSYPYTFGGGTKLEIK
notes: also called 3H7 antibody; 3H7 supernatant
B2: the binding result in experiment [5] is given as “no binding”.

These data come from patent US20090074771A1 (MacroGenics, published 2009).
